Reference: patent publication US20220340924

Target: T1, MYB46-GFP fusion
T1 chain: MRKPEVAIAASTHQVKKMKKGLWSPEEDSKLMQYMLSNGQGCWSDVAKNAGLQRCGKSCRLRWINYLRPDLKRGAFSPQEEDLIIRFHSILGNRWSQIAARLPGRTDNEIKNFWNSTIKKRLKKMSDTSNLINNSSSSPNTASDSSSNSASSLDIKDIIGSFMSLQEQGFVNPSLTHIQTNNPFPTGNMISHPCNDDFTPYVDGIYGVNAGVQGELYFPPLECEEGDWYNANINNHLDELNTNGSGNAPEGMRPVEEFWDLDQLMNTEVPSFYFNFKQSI

B1: CAMPK6-HA (hemagglutinin conjugated CAMPK6) (protein)
chain: MDGGSGQPAADTEMTEAPGGFPAAAPSPQMPGIENIPATLSHGGRFIQYNIFGNIFEVTAKYKPPIMPIGKGAYGIVCSAMNSETNESVAIKKIANAFDNKIDAKRTLREIKLLRHMDHENIVAIRDIIPPPLRNAFNDVYIAYELMDTDLHQIIRSNQALSEEHCQYFLYQILRGLKYIHSANVLHRDLKPSNLLLNANCDLKICDFGLARVTSESGFMTAYVVTRWYRAPELLLNSSDYTAAIDVWSVGCIFMELMDRKPLFPGRDHVHQLRLLMELIGTPSEEELEFLNENAKRYIRQLPPYPRQSITDKFPTVHPLAIDLIEKMLTFDPRRRITVLDALAHPYLNSLHDISDEPECTIPFNFDFENHALSEEQMKELIYREALAFNPEYQQ
  immunocomplex kinase assay (phosphorylation of MYB46): CAMPK6 directly phosphorylates MYB46
